These results are taken from article PMC10699845, “Light quality regulates plant biomass and fruit quality through a photoreceptor-dependent HY5-LHC/CYCB module in tomato”.

T1: SlHY5 (Solanum lycopersicum, UniProt Q9SM50 1-158)
T1 sequence: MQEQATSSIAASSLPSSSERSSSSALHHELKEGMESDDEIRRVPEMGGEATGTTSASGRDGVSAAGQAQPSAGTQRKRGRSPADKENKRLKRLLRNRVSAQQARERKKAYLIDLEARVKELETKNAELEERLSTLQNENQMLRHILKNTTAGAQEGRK

B1: SlLHCA probe (dsDNA)
DNA 1: CAAATTGGTGACAACGTACATTCTGGCA
DNA 2: TGCCAGAATGTACGTTGTCACCAATTTG
B2: SlLHCA-m probe (dsDNA)
DNA 1: CAAATTGGTGACATTTTACATTCTGGCA
DNA 2: TGCCAGAATGTAAAATGTCACCAATTTG
B3: SlLHCB probe (dsDNA)
DNA 1: CTGCTTAGTTGTACGTCTTGTAATCCTC
DNA 2: GAGGATTACAAGACGTACAACTAAGCAG
B4: SlLHCB-m probe (dsDNA)
DNA 1: CTGCTTAGTTGTTTTTCTTGTAATCCTC
DNA 2: GAGGATTACAAGAAAAACAACTAAGCAG
B5: SlCYCB probe (dsDNA)
DNA 1: ACGTGTTTATTTTTTACTTTAAGAACGTG
DNA 2: CACGTTCTTAAAGTAAAAAATAAACACGT
B6: SlCYCB-m probe (dsDNA)
DNA 1: ACGTGTTTATTTTTTACTTTAAGATTTTG
DNA 2: CAAAATCTTAAAGTAAAAAATAAACACGT

This series deals with T1, SlHY5. In words: EMSA; LightShift Chemiluminescent EMSA kit (Thermo 20148); buffer, salt, pH and temperature not stated. The following applies: protein: recombinant, tags: His, chain copies: 2, blunt. A general note: Mobility shift assays separate free from complexed probe on a gel.
For B1, the binding result was “binds”.

Consider B2, for which the binding result is listed as “no binding”. With B3 the entry was “binds”; with B4, “no binding”. For the molecule B5, the binding result is given as “binds”. For the molecule B6, the binding result is reported as “no binding”.
